Assays:
[1] = target: MUC16 (CA125), membrane-bound, on tumor cells (human) (UniProt Q8WXI7)
[2] = target: MUC16 (CA125), membrane-bound, on tumor cells (human) (UniProt Q8WXI7); experiment: flow cytometry on MUC16-positive OVCAR3 cells, anti-FLAG detection

percent of cells positive for the FLAG epitope tag [2]: 100%
Substance: soluble mesothelin (Meso), secreted FLAG-tagged form of human mesothelin (from UniProt Q13421) (ligand)
reduction of Meso-TR3 killing of OVCAR3 cells by soluble mesothelin (% cell killing) [1]: 40

From patent US20130302270A1
